Source: PMC9482650, “Quantitative fragmentomics allow affinity mapping of interactomes” (Nature Communications, 2022)

T1: APBA1_1, Q02410
T1 sequence (Q02410 651-752, limits assumed, looked up): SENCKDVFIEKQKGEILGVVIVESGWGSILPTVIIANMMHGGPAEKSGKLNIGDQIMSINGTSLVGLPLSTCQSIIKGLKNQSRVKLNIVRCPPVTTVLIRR

T2: APBA2_2, Q99767
T2 sequence (Q99767 654-744, limits assumed, looked up): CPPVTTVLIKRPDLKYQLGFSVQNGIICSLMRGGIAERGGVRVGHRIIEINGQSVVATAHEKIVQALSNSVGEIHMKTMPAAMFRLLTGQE

T3: DFNB31_2, Q9P202
T3 sequence (Q9P202 274-371, limits assumed, looked up): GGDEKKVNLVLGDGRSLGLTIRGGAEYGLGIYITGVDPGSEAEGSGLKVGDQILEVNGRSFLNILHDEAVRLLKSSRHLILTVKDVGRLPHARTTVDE

T4: DFNB31_3, Q9P202
T4 sequence (Q9P202 811-907, limits assumed, looked up): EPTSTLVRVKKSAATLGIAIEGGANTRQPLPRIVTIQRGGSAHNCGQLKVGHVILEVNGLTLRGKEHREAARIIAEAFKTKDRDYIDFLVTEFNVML

T5: GRIP1_3, Q9Y3R0
T5 sequence (Q9Y3R0 247-346, limits assumed, looked up): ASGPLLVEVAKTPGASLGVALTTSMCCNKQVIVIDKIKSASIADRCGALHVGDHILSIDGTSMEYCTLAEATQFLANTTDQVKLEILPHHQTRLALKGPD

T6: GRIP1_7, Q9Y3R0
T6 sequence (Q9Y3R0 999-1096, limits assumed, looked up): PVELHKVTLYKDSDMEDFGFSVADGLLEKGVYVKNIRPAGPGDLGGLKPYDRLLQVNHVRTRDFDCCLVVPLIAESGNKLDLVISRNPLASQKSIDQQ

T7: MPDZ_12, O75970
T7 sequence (O75970 1857-1958, limits assumed, looked up): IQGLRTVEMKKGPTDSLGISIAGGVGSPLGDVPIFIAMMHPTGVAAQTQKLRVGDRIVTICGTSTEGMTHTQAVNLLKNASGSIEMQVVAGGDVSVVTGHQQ

T8: MPP6, Q9NZW5
T8 sequence (Q9NZW5 125-219, limits assumed, looked up): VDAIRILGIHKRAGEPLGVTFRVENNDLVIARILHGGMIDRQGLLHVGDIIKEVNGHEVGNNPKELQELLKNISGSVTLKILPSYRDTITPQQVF

T9: PDZD7_3, Q9H5P4
T9 sequence (Q9H5P4 857-944, limits assumed, looked up): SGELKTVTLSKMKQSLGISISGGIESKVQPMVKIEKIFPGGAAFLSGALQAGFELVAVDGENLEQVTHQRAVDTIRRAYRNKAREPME

T10: PTPN13_1, Q12923
T10 sequence (Q12923 1088-1188, limits assumed, looked up): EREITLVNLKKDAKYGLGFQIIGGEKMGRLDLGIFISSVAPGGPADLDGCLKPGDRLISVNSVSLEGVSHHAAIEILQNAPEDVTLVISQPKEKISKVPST

T11: SHANK1, Q9Y566
T11 sequence (Q9Y566 658-767, limits assumed, looked up): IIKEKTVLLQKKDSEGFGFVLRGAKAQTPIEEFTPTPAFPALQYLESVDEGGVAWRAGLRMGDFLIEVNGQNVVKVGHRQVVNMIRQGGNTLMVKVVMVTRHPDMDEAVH

T12: SYNJ2BP, P57105
T12 sequence (P57105 8-110, limits assumed, looked up): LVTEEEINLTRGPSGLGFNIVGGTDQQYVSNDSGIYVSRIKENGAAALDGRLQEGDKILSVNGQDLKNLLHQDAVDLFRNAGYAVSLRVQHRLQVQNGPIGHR


What was measured:
Assay in all cases: holdup assay
Parameters in all cases: key: below the threshold = too weak to quantify, mostly under pKd 3.1 to 4
Conditions in all cases: plain residues with an end cap or a label only (N-terminal biotin on a linker: ado-ado)
APBA1_1, Q02410 = target: T1, APBA1_1, Q02410
APBA2_2, Q99767 = target: T2, APBA2_2, Q99767
CASK, O14936 = target: CASK, O14936
DFNB31_2, Q9P202 = target: T3, DFNB31_2, Q9P202
DFNB31_3, Q9P202 = target: T4, DFNB31_3, Q9P202
DLG4_2, P78352 = target: DLG4_2, P78352
DLG4_3, P78352 = target: DLG4_3, P78352
FRMPD2_2, Q68DX3 = target: FRMPD2_2, Q68DX3
GOPC, Q9HD26 = target: GOPC, Q9HD26
GRID2IP_1, A4D2P6 = target: GRID2IP_1, A4D2P6
GRIP1_3, Q9Y3R0 = target: T5, GRIP1_3, Q9Y3R0
GRIP1_7, Q9Y3R0 = target: T6, GRIP1_7, Q9Y3R0
GRIP2_3, Q9C0E4 = target: GRIP2_3, Q9C0E4
Inadl_8, Q8NI35 = target: Inadl_8, Q8NI35
MAGI1_1, Q96QZ7 = target: MAGI1_1, Q96QZ7
MAGI1_2, Q96QZ7 = target: MAGI1_2, Q96QZ7
MAST1, Q9Y2H9 = target: MAST1, Q9Y2H9
MPDZ_12, O75970 = target: T7, MPDZ_12, O75970
MPP6, Q9NZW5 = target: T8, MPP6, Q9NZW5
NHERF2_2, Q15599 = target: NHERF2_2, Q15599
PDZD7_3, Q9H5P4 = target: T9, PDZD7_3, Q9H5P4
PDZRN4_1, Q6ZMN7 = target: PDZRN4_1, Q6ZMN7
PTPN13_1, Q12923 = target: T10, PTPN13_1, Q12923
SHANK1, Q9Y566 = target: T11, SHANK1, Q9Y566
SYNJ2BP, P57105 = target: T12, SYNJ2BP, P57105
TJP1_3, Q07157 = target: TJP1_3, Q07157
TJP1_3, Q07157, sequence (Q07157 416-512): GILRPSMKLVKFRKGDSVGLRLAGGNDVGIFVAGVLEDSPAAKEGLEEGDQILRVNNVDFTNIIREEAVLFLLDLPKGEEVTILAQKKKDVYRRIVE

MAGI1_2, Q96QZ7, sequence (Q96QZ7 456-580): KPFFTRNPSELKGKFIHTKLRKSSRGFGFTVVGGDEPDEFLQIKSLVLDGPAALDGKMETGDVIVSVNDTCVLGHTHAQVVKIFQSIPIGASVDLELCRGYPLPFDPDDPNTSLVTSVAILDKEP
Inadl_8, Q8NI35, sequence (Q8NI35 1425-1530): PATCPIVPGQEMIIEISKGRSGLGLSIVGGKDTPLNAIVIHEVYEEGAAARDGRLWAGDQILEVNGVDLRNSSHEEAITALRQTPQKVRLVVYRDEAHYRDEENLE
MAST1, Q9Y2H9, sequence (Q9Y2H9 962-1065): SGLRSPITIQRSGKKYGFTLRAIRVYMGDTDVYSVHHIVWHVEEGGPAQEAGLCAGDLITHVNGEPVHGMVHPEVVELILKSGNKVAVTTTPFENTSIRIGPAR
FRMPD2_2, Q68DX3, sequence (Q68DX3 944-1038): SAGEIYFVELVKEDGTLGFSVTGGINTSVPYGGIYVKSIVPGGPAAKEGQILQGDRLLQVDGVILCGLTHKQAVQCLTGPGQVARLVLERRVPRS
GRID2IP_1, A4D2P6, sequence (A4D2P6 1-87): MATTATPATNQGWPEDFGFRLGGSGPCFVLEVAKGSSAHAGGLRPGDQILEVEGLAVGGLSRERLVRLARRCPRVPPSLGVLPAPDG
MAGI1_1, Q96QZ7, sequence (Q96QZ7 1-106): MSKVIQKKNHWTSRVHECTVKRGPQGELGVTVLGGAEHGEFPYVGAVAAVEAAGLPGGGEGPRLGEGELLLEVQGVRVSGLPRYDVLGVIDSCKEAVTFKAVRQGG
NHERF2_2, Q15599, sequence (Q15599 142-238): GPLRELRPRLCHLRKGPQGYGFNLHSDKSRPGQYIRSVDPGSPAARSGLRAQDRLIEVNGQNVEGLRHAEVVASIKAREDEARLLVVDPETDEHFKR
PDZRN4_1, Q6ZMN7, sequence (Q6ZMN7 213-318): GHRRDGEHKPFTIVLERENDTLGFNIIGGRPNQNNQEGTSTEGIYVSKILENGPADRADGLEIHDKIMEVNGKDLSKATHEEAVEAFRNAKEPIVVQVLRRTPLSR
CASK, O14936, sequence (O14936 487-570): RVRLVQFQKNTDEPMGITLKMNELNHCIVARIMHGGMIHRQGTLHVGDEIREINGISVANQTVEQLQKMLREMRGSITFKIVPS
DLG4_2, P78352, sequence (P78352 155-259): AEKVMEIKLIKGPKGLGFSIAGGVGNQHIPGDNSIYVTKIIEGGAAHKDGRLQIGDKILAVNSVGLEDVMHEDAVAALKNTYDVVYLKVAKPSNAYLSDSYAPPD
GRIP2_3, Q9C0E4, sequence (Q9C0E4 238-339): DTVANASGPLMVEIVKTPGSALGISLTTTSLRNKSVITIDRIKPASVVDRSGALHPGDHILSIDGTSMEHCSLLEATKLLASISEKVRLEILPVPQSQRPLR
DLG4_3, P78352, sequence (P78352 306-403): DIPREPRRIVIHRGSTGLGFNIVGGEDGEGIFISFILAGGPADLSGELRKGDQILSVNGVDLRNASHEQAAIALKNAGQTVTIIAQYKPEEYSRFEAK

Binder | pKd (APBA1_1, Q02410) | pKd (APBA2_2, Q99767) | pKd (CASK, O14936) | pKd (DFNB31_2, Q9P202) | pKd (DFNB31_3, Q9P202) | pKd (DLG4_2, P78352) | pKd (DLG4_3, P78352) | pKd (FRMPD2_2, Q68DX3) | pKd (GOPC, Q9HD26) | pKd (GRID2IP_1, A4D2P6) | pKd (GRIP1_3, Q9Y3R0) | pKd (GRIP1_7, Q9Y3R0) | pKd (GRIP2_3, Q9C0E4) | pKd (Inadl_8, Q8NI35) | pKd (MAGI1_1, Q96QZ7) | pKd (MAGI1_2, Q96QZ7) | pKd (MAST1, Q9Y2H9) | pKd (MPDZ_12, O75970) | pKd (MPP6, Q9NZW5) | pKd (NHERF2_2, Q15599) | further results
LRSPRTPSEV [OR10G3, Q8NGC4] | below the threshold | below the threshold | 3.61 | below the threshold | 3.79 | 3.88 | below the threshold | below the threshold | below the threshold | below the threshold | below the threshold | below the threshold | below the threshold | 4.18 | below the threshold | 3.92 | below the threshold | 3.5 | below the threshold | below the threshold | pKd (PDZD7_3, Q9H5P4): below the threshold; pKd (PDZRN4_1, Q6ZMN7): below the threshold; pKd (PTPN13_1, Q12923): 3.71; pKd (SHANK1, Q9Y566): below the threshold; pKd (SYNJ2BP, P57105): 4.61; pKd (TJP1_3, Q07157): below the threshold
RRRESYSTTV [EVI5, O60447] | below the threshold | below the threshold | below the threshold | below the threshold | below the threshold | 5.87 | 4.44 | 3.74 | 4.36 | below the threshold | below the threshold | below the threshold | below the threshold | 4.06 | below the threshold | 4.78 | 4.82 | below the threshold | below the threshold | 4.21 | pKd (PDZD7_3, Q9H5P4): 4.61; pKd (PDZRN4_1, Q6ZMN7): 4.23; pKd (PTPN13_1, Q12923): below the threshold; pKd (SHANK1, Q9Y566): 4.36; pKd (SYNJ2BP, P57105): 4.89; pKd (TJP1_3, Q07157): below the threshold
